Data from PMC8169943.

Legend:
[1] = target: AdeS histidine kinase transmitter domain (DHp-CA) (Acinetobacter baumannii); test: SEC
[2] = target: AdeS histidine kinase transmitter domain (DHp-CA) (Acinetobacter baumannii); test: SAXS
[3] = target: AdeS full cytoplasmic domain (HAMP-DHp-CA) (Acinetobacter baumannii); test: SEC
[4] = target: AdeS full cytoplasmic domain (HAMP-DHp-CA) (Acinetobacter baumannii); test: SAXS
purified protein = substrate: Nc1ncnc2c1ncn2[C@@H]1O[C@H](COP(=O)(O)OP(=O)(O)OP(=O)(O)O)[C@@H](O)[C@H]1O; test: purified protein; conditions: autophosphorylation; hexameric cytoplasmic domain

Molecule: AdeS histidine kinase transmitter domain (DHp-CA) (domain or fragment)
- stoichiometry N [1]: 2
- stoichiometry N [2]: 2

Molecule: AdeS full cytoplasmic domain (HAMP-DHp-CA) (domain or fragment)
- stoichiometry N [3]: 6
- stoichiometry N [4]: 6

B1: AdeS cytoplasmic domain (HAMP-DHp-CA) (Acinetobacter baumannii) (protein)
chain: KRFIVPINFLAEAAKKISHGDLSARAYDNRIHFAEMSELLYNFNDMAQKLEVSVKNAQVWNAAIAHELRTPITILQGRLQGIIDGVFKPDEVLFKSLLNQVEVLSHLVEDLRTLSLVENQQLRLNYELFDFKAVVEKVLKAFEDRLDQAKLVPELDLTSTPVYCDRRRIEQVLIALIDNAIRYSHAGKLKISSEVVSQNWILKIEDEGPGIATEFQDDLFKPFFRLEESRNKEFGGTGLGLAVVHAIIVALKGTIQYSNQGSKSIFTIKISMNN
- Km (purified protein): 5.25 ± 0.20 µM
